Read-outs that look alike come from different tables or passages of the source. Bridge positions count the residues as written; N and C are the ends. Square brackets hold non-standard residues; d marks the D form. Ends that are not written are not given here. hArg = N=C(N)NCCCC[C@H](N)C(=O)O

The target of test [1] is T1, proprotein convertase subtilisin/kexin type 9 (PCSK9) (human, UniProt Q8NBP7 31-152).
T1 construct: domain: prodomain; Recombinant; tag not written as a part; also called rec.PCSK9; His-PCSK9
T1 sequence (Q8NBP7 31-152 limits assumed, chain 1 of 2): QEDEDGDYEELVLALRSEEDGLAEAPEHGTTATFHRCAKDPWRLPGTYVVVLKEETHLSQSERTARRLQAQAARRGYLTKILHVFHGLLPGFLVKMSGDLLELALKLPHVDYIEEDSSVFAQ
T1 sequence (Q8NBP7 153-692 limits assumed, chain 2 of 2): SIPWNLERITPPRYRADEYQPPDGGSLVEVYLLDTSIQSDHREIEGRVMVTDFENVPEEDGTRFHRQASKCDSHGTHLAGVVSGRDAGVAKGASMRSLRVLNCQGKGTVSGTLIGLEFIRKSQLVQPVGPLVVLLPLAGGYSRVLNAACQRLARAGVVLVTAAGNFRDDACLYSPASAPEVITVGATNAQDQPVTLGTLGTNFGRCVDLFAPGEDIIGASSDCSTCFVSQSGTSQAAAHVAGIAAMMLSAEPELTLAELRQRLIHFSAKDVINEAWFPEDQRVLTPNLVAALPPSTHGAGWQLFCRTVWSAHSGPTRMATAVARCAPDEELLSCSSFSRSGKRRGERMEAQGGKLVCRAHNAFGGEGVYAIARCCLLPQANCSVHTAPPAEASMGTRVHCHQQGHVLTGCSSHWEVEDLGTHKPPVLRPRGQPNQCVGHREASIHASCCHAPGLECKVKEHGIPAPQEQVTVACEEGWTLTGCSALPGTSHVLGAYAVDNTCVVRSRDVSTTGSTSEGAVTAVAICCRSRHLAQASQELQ
Briefly: phage ELISA. Background: In an ELISA, binding on a coated surface is turned into a signal by an enzyme label.

The target of test [2] is T2, His-tagged PCSK9Δhelix (human, UniProt Q8NBP7 31-152; Q8NBP7 168-692).
T2 construct: Human PCSK9 M1-Q692 with engineered TEV site, cleaved by TEV protease; Target protein of the PCSK9Δhelix/Ab20 TR-FRET assay (1.25 nM); also called His-PCSK9Δhelix
T2 sequence (Q8NBP7 31-152, stated change not applied, chain 1 of 2): as the sequence (Q8NBP7 31-152 limits assumed, chain 1 of 2) above
T2 sequence (Q8NBP7 other isoform, or with tags, fused parts or gaps mutant, chain 2 of 2): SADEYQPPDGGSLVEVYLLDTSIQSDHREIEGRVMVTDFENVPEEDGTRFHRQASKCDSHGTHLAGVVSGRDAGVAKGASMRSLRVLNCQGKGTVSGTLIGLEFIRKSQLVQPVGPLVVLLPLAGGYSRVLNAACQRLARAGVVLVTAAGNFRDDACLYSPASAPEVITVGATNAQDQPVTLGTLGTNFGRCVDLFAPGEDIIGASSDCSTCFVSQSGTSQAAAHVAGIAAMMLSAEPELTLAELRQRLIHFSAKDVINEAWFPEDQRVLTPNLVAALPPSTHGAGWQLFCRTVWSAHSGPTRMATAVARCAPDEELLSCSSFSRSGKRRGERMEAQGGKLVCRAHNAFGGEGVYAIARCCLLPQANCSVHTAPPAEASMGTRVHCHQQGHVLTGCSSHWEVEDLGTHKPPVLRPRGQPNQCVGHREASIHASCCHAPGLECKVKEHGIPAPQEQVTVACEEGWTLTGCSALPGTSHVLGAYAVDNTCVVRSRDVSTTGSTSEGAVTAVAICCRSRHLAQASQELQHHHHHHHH
The experiment in a line: TR-FRET competition; competitor Ab20 on His-PCSK9Δhelix.

Test [3] concerns the target T3, His-tagged, full-length PCSK9 (human, UniProt A8T644 31-152; Q8NBP7 153-692).
T3 construct: Target protein of the PCSK9/EGF(A) TR-FRET assay (10 nM); also called His-PCSK9; proprotein convertase subtilisin/kexin type 9
Briefly: TR-FRET competition; competitor EGF(A)-Fc on His-PCSK9.

Test [4] has as its target T4, PCSK9Δhelix (human, UniProt Q8NBP7 31-152).
T4 construct: domain: prodomain; Construct M1-Q692 with engineered TEV site, cut with TEV; His-tagged (tag not written as a part); also called His-PCSK9Δhelix; open groove PCSK9Δhelix
Briefly: SPR. (SPR reads the build-up and loss of mass on a sensor chip optically.)

Test [5] concerns the target T1, proprotein convertase subtilisin/kexin …. The experiment in a line: phage competition ELISA.
The target of test [6] is T5, His-tagged, full-length PCSK9 (human, UniProt Q8NBP7 31-152; Q8NBP7 153-692).
T5 construct: Target protein of the PCSK9/EGF(A) TR-FRET assay (10 nM); also called His-PCSK9
T5 sequence (Q8NBP7 31-152, chain 1 of 2): as the sequence (Q8NBP7 31-152 limits assumed, chain 1 of 2) above
T5 sequence (Q8NBP7 other isoform, or with tags, fused parts or gaps, chain 2 of 2): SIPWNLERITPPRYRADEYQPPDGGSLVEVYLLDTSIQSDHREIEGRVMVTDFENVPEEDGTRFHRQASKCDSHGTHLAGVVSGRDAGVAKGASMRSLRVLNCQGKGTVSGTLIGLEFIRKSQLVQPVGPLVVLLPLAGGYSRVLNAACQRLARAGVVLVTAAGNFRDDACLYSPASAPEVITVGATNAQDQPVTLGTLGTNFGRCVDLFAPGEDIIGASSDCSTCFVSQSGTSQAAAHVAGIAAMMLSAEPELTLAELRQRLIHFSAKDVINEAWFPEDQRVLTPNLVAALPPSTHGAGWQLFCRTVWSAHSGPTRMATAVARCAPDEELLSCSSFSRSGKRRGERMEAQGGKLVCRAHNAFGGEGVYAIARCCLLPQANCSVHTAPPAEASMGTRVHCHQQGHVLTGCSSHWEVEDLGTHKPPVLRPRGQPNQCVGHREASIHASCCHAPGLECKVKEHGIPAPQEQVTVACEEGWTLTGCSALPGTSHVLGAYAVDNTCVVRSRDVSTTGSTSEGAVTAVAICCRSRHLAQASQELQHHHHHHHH
Briefly: TR-FRET competition, His-PCSK9; competitor EGF(A)-Fc. On the technique in general: Time-resolved FRET reads energy transfer from a long-lived donor to a nearby acceptor.

The target of test [7] is T6, human PCSK9 (proprotein convertase subtilisin/kexin type 9), His-tagged, full-length (human, UniProt A8T644 31-152; Q8NBP7 153-692, limits assumed).
T6 construct: The secreted protein is the prodomain plus the catalytic/Cys-rich part (N-terminus S153) after autocleavage; also called His-PCSK9; NARC-1
T6 sequence (A8T644 31-152 limits assumed, chain 1 of 2): as the sequence (Q8NBP7 31-152 limits assumed, chain 1 of 2) above
T6 sequence (A8T644 other isoform, or with tags, fused parts or gaps limits assumed, chain 2 of 2): as the sequence (Q8NBP7 other isoform, or with tags, fused parts or gaps, chain 2 of 2) above
The experiment in a line: TR-FRET competition vs EGF(A)-Fc on His-PCSK9.

Test [8] concerns the target T7, PCSK9Δhelix (human PCSK9 lacking the P' helix, His-tagged) (human, UniProt Q8NBP7 31-152; Q8NBP7 168-692).
T7 construct: Construct M1-Q692 with engineered TEV site (Y166, R167 deleted, ENLYFQS inserted between R165 and A168), cleaved by TEV protease; new N-terminus of the catalytic domain is S-A168; also called His-PCSK9Δhelix
Briefly: TR-FRET competition vs Ab20 on His-PCSK9Δhelix.

Test [9] concerns the target T6, human PCSK9 (proprotein convertase …). The experiment in a line: TR-FRET competition vs EGF(A)-Fc on His-PCSK9. This is another data set of the same source.
Test [10] has the same target. The experiment in a line: SPR, Biacore T100, NTA capture, single cycle kinetics (Method 2).

T3 sequence (A8T644 31-152 limits assumed, chain 1 of 2): as the sequence (Q8NBP7 31-152 limits assumed, chain 1 of 2) above
T3 sequence (A8T644 other isoform, or with tags, fused parts or gaps limits assumed, chain 2 of 2): as the sequence (Q8NBP7 other isoform, or with tags, fused parts or gaps, chain 2 of 2) above
T4 sequence (Q8NBP7 31-152 limits assumed, stated change not applied, form in doubt, chain 1 of 2): as the sequence (Q8NBP7 31-152 limits assumed, chain 1 of 2) above
T4 sequence (Q8NBP7 other isoform, or with tags, fused parts or gaps mutant limits assumed, form in doubt, chain 2 of 2): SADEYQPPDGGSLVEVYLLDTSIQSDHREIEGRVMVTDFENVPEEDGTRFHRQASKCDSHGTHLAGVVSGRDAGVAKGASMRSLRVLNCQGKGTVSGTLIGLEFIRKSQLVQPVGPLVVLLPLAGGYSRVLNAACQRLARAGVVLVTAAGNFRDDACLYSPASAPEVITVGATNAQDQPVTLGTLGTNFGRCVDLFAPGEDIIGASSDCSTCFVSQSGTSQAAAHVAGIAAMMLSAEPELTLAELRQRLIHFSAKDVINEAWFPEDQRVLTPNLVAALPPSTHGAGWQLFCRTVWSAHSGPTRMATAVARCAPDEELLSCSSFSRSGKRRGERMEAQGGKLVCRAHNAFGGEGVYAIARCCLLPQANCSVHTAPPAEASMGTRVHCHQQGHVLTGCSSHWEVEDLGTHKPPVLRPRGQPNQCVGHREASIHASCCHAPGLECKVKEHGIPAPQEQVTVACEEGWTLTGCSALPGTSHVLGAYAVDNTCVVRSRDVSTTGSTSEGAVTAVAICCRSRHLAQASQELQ
T7 sequence (Q8NBP7 31-152, stated change not applied, chain 1 of 2): as the sequence (Q8NBP7 31-152 limits assumed, chain 1 of 2) above
T7 sequence (Q8NBP7 other isoform, or with tags, fused parts or gaps mutant, chain 2 of 2): as the sequence (Q8NBP7 other isoform, or with tags, fused parts or gaps mutant, chain 2 of 2) above

B1: Phage-displayed Pep2-8 (on p8) (peptide)
chain: TVFTSWEEYLDWV
notes: Peptide fused to the N-terminus of p8 on M13 phage; also called phage displaying Pep2-8; not shown: M13 major coat protein p8
Regarding B1, the binding result in [1] was “binds”.

B2: Compound 109 (peptide)
peptide: Ac-C[dR]LPWNLQRIGLPC-NH2
modifications: disulfide 1-14
SMILES: CC[C@H](C)[C@@H]1NC(=O)[C@H](CCCNC(=N)N)NC(=O)[C@H](CCC(N)=O)NC(=O)[C@H](CC(C)C)NC(=O)[C@H](CC(N)=O)NC(=O)[C@H](Cc2c[nH]c3ccccc23)NC(=O)[C@@H]2CCCN2C(=O)[C@H](CC(C)C)NC(=O)[C@@H](CCCNC(=N)N)NC(=O)[C@@H](NC(C)=O)CSSC[C@@H](C(N)=O)NC(=O)[C@@H]2CCCN2C(=O)[C@H](CC(C)C)NC(=O)CNC1=O
Usually IC50 stands for the concentration that gives 50% inhibition. Low readings indicate inhibition by little substance, high ones a need for much substance. On to B2, for which the figures for the IC50 in [2] and in test [3] were 1.67 µM and greater than 50 µM, respectively.

With Ac-WNLVRIGLLR-NH2 [Compound 53], the “fold reduction of binding affinity against Compound 35” value in test [4] stood at 10 fold.

Take SGCRLPWNLQRIGLPC (not fully specified (bridges); cysteine pairing not given here, Synthetic peptide) [K9gvpep4]: the binding result in test [5] is “binds”.

Take Ac-SGDLMPWNLVRIGLLR-NH2 [Compound 122]: the half-maximal inhibitory concentration (IC50) in [6] was no less than 50 µM.

For Ac-DLMPWNLVRIALLR-NH2 [Compound 57], the half-inhibitory concentration (IC50) is greater than 50 µM in test [7] and 49.5 µM in test [8].

Turning to Ac-WNLV[hArg]IGLLR-NH2 (Ac-WNLV(homoR)IGLLR-NH2) [Compound 192], the “fold improvement of binding affinity against Compound 53” value in test [4] is 14 fold.

B3: Compound 2 (peptide)
peptide: Ac-TVFTSWEEYLDWVGSGCWNLKRIGSQGC-NH2
modifications: disulfide 17-28
SMILES: CC[C@H](C)[C@@H]1NC(=O)[C@H](CCCNC(=N)N)NC(=O)[C@H](CCCCN)NC(=O)[C@H](CC(C)C)NC(=O)[C@H](CC(N)=O)NC(=O)[C@H](Cc2c[nH]c3ccccc23)NC(=O)[C@@H](NC(=O)CNC(=O)[C@H](CO)NC(=O)CNC(=O)[C@@H](NC(=O)[C@H](Cc2c[nH]c3ccccc23)NC(=O)[C@H](CC(=O)O)NC(=O)[C@H](CC(C)C)NC(=O)[C@H](Cc2ccc(O)cc2)NC(=O)[C@H](CCC(=O)O)NC(=O)[C@H](CCC(=O)O)NC(=O)[C@H](Cc2c[nH]c3ccccc23)NC(=O)[C@H](CO)NC(=O)[C@@H](NC(=O)[C@H](Cc2ccccc2)NC(=O)[C@@H](NC(=O)[C@@H](NC(C)=O)[C@@H](C)O)C(C)C)[C@@H](C)O)C(C)C)CSSC[C@@H](C(N)=O)NC(=O)CNC(=O)[C@H](CCC(N)=O)NC(=O)[C@H](CO)NC(=O)CNC1=O
The Kd is the equilibrium constant for the complex coming apart. B3 gave a half-inhibitory concentration (IC50) in test [9] of 0.11 µM. This molecule also showed a Kd in [10] of 0.0303 µM.

B4: Compound 108 (peptide)
peptide: Ac-CR[dL]PWNLQRIGLPC-NH2
modifications: disulfide 1-14
SMILES: CC[C@H](C)[C@@H]1NC(=O)[C@H](CCCNC(=N)N)NC(=O)[C@H](CCC(N)=O)NC(=O)[C@H](CC(C)C)NC(=O)[C@H](CC(N)=O)NC(=O)[C@H](Cc2c[nH]c3ccccc23)NC(=O)[C@@H]2CCCN2C(=O)[C@@H](CC(C)C)NC(=O)[C@H](CCCNC(=N)N)NC(=O)[C@@H](NC(C)=O)CSSC[C@@H](C(N)=O)NC(=O)[C@@H]2CCCN2C(=O)[C@H](CC(C)C)NC(=O)CNC1=O
As to B4, the IC50 in test [2] was 28.2 µM; in test [3] it was greater than 50 µM.

The values above are taken from patent publication US20190177366A1 (published 2019).
